Experimental data from patent publication US20230357348A1 (AstraZeneca / MedImmune, published 2023).
Starred links: 1 amine or outer side, 2 acyl side, 3 side chain; linkers in the order of their positions; H or OH if unused. Non-standard residues stand in square brackets, D forms with d. Groups on a side chain read outwards from the residue. No end group written: not given here. *: point of attachment. C20 diacid = O=C(O)CCCCCCCCCCCCCCCCCCC(=O)*; C18 diacid = O=C(O)CCCCCCCCCCCCCCCCC(=O)*; γGlu = O=C(O)[C@H](CCC(=O)[*:2])N[*:1]; αMeF = C[C@](N)(Cc1ccccc1)C(=O)O; AEEA = NCCOCCOCC(=O)O; Aib = CC(C)(N)C(=O)O

Columns and labels:
[1] = molecular target: human GLP-1 receptor (hGLP-1R) (human, UniProt P43220 24-463); experiment: cell-based or functional assay
[2] = molecular target: human glucagon receptor (hGCGR) (human, UniProt P47871 26-477); experiment: cell-based or functional assay
Chain of human glucagon receptor (hGCGR) (P47871 26-477): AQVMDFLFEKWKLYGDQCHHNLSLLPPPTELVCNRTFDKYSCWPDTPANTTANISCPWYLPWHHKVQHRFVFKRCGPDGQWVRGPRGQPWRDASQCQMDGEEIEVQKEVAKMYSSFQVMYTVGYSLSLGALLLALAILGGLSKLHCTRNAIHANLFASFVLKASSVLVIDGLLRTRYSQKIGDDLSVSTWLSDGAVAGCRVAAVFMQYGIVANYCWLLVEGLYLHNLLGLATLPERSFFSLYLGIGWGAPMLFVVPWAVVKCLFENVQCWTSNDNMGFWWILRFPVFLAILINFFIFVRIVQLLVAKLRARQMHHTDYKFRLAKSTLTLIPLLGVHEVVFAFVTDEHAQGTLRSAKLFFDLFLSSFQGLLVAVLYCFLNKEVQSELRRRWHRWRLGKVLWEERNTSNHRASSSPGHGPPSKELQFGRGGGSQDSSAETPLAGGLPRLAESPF

## H[Aib]QGTFTSDVSK[αMeF]LDTK([AEEA-AEEA-γGlu-γGlu-C20 diacid])RAQDFVAWLEAGG-OH [Peptide 413]
[1]
  hGLP-1R EC50 (pM): 406 pM
[2]
  hGluc-R EC50 (pM): 1020 pM

B1: Peptide 410 (peptide)
peptide: H[Aib]QGTFTSDVSK[αMeF]LDTK([AEEA-AEEA-γGlu-C20 diacid])RARDFVAWLL[Aib]TE-OH
modifications: N-terminus assumed
SMILES: CC(C)C[C@H](NC(=O)[C@H](Cc1c[nH]c2ccccc12)NC(=O)[C@H](C)NC(=O)[C@@H](NC(=O)[C@H](Cc1ccccc1)NC(=O)[C@H](CC(=O)O)NC(=O)[C@H](CCCNC(=N)N)NC(=O)[C@H](C)NC(=O)[C@H](CCCNC(=N)N)NC(=O)[C@H](CCCCNC(=O)COCCOCCNC(=O)COCCOCCNC(=O)CC[C@H](NC(=O)CCCCCCCCCCCCCCCCCCC(=O)O)C(=O)O)NC(=O)[C@@H](NC(=O)[C@H](CC(=O)O)NC(=O)[C@H](CC(C)C)NC(=O)[C@](C)(Cc1ccccc1)NC(=O)[C@H](CCCCN)NC(=O)[C@H](CO)NC(=O)[C@@H](NC(=O)[C@H](CC(=O)O)NC(=O)[C@H](CO)NC(=O)[C@@H](NC(=O)[C@H](Cc1ccccc1)NC(=O)[C@@H](NC(=O)CNC(=O)[C@H](CCC(N)=O)NC(=O)C(C)(C)NC(=O)[C@@H](N)Cc1c[nH]cn1)[C@@H](C)O)[C@@H](C)O)C(C)C)[C@@H](C)O)C(C)C)C(=O)N[C@@H](CC(C)C)C(=O)NC(C)(C)C(=O)N[C@H](C(=O)N[C@@H](CCC(=O)O)C(=O)O)[C@@H](C)O
[1]
  hGLP-1R EC50 (pM): 78 pM
[2]
  hGluc-R EC50 (pM): 455 pM

B2: Peptide 412 (peptide)
peptide: H[Aib]QGTFTSDVSK[αMeF]LDTK([AEEA-AEEA-γGlu-C20 diacid])RAQDFVAWLEAGG-OH
modifications: N-terminus assumed
SMILES: CC(C)C[C@H](NC(=O)[C@H](Cc1c[nH]c2ccccc12)NC(=O)[C@H](C)NC(=O)[C@@H](NC(=O)[C@H](Cc1ccccc1)NC(=O)[C@H](CC(=O)O)NC(=O)[C@H](CCC(N)=O)NC(=O)[C@H](C)NC(=O)[C@H](CCCNC(=N)N)NC(=O)[C@H](CCCCNC(=O)COCCOCCNC(=O)COCCOCCNC(=O)CC[C@H](NC(=O)CCCCCCCCCCCCCCCCCCC(=O)O)C(=O)O)NC(=O)[C@@H](NC(=O)[C@H](CC(=O)O)NC(=O)[C@H](CC(C)C)NC(=O)[C@](C)(Cc1ccccc1)NC(=O)[C@H](CCCCN)NC(=O)[C@H](CO)NC(=O)[C@@H](NC(=O)[C@H](CC(=O)O)NC(=O)[C@H](CO)NC(=O)[C@@H](NC(=O)[C@H](Cc1ccccc1)NC(=O)[C@@H](NC(=O)CNC(=O)[C@H](CCC(N)=O)NC(=O)C(C)(C)NC(=O)[C@@H](N)Cc1c[nH]cn1)[C@@H](C)O)[C@@H](C)O)C(C)C)[C@@H](C)O)C(C)C)C(=O)N[C@@H](CCC(=O)O)C(=O)N[C@@H](C)C(=O)NCC(=O)NCC(=O)O
[1]
  hGLP-1R EC50 (pM): 186 pM
[2]
  hGluc-R EC50 (pM): 397 pM

B3: Peptide 411 (peptide)
peptide: H[Aib]QGTFTSDVSK[αMeF]LDTK([AEEA-AEEA-γGlu-C18 diacid])RAQDFVAWLEAGG-OH
modifications: N-terminus assumed
SMILES: CC(C)C[C@H](NC(=O)[C@H](Cc1c[nH]c2ccccc12)NC(=O)[C@H](C)NC(=O)[C@@H](NC(=O)[C@H](Cc1ccccc1)NC(=O)[C@H](CC(=O)O)NC(=O)[C@H](CCC(N)=O)NC(=O)[C@H](C)NC(=O)[C@H](CCCNC(=N)N)NC(=O)[C@H](CCCCNC(=O)COCCOCCNC(=O)COCCOCCNC(=O)CC[C@H](NC(=O)CCCCCCCCCCCCCCCCC(=O)O)C(=O)O)NC(=O)[C@@H](NC(=O)[C@H](CC(=O)O)NC(=O)[C@H](CC(C)C)NC(=O)[C@](C)(Cc1ccccc1)NC(=O)[C@H](CCCCN)NC(=O)[C@H](CO)NC(=O)[C@@H](NC(=O)[C@H](CC(=O)O)NC(=O)[C@H](CO)NC(=O)[C@@H](NC(=O)[C@H](Cc1ccccc1)NC(=O)[C@@H](NC(=O)CNC(=O)[C@H](CCC(N)=O)NC(=O)C(C)(C)NC(=O)[C@@H](N)Cc1c[nH]cn1)[C@@H](C)O)[C@@H](C)O)C(C)C)[C@@H](C)O)C(C)C)C(=O)N[C@@H](CCC(=O)O)C(=O)N[C@@H](C)C(=O)NCC(=O)NCC(=O)O
[1]
  hGLP-1R EC50 (pM): 98.1 pM
[2]
  hGluc-R EC50 (pM): 378 pM

B4: Peptide 414 (peptide)
peptide: H[Aib]QGTFTSDVSK[αMeF]LDKK([AEEA-AEEA-γGlu-C18 diacid])RARDFVRWLL[Aib]E-OH
modifications: N-terminus assumed
SMILES: CC(C)C[C@H](NC(=O)[C@H](Cc1c[nH]c2ccccc12)NC(=O)[C@H](CCCNC(=N)N)NC(=O)[C@@H](NC(=O)[C@H](Cc1ccccc1)NC(=O)[C@H](CC(=O)O)NC(=O)[C@H](CCCNC(=N)N)NC(=O)[C@H](C)NC(=O)[C@H](CCCNC(=N)N)NC(=O)[C@H](CCCCNC(=O)COCCOCCNC(=O)COCCOCCNC(=O)CC[C@H](NC(=O)CCCCCCCCCCCCCCCCC(=O)O)C(=O)O)NC(=O)[C@H](CCCCN)NC(=O)[C@H](CC(=O)O)NC(=O)[C@H](CC(C)C)NC(=O)[C@](C)(Cc1ccccc1)NC(=O)[C@H](CCCCN)NC(=O)[C@H](CO)NC(=O)[C@@H](NC(=O)[C@H](CC(=O)O)NC(=O)[C@H](CO)NC(=O)[C@@H](NC(=O)[C@H](Cc1ccccc1)NC(=O)[C@@H](NC(=O)CNC(=O)[C@H](CCC(N)=O)NC(=O)C(C)(C)NC(=O)[C@@H](N)Cc1c[nH]cn1)[C@@H](C)O)[C@@H](C)O)C(C)C)C(C)C)C(=O)N[C@@H](CC(C)C)C(=O)NC(C)(C)C(=O)N[C@@H](CCC(=O)O)C(=O)O
[1]
  hGLP-1R EC50 (pM): 32.3 pM
[2]
  hGluc-R EC50 (pM): 26.9 pM

B5: Peptide 409 (peptide)
peptide: H[Aib]QGTFTSDVSK[αMeF]LDTK([AEEA-AEEA-γGlu-C18 diacid])RARDFVAWLL[Aib]TE-OH
modifications: N-terminus assumed
SMILES: CC(C)C[C@H](NC(=O)[C@H](Cc1c[nH]c2ccccc12)NC(=O)[C@H](C)NC(=O)[C@@H](NC(=O)[C@H](Cc1ccccc1)NC(=O)[C@H](CC(=O)O)NC(=O)[C@H](CCCNC(=N)N)NC(=O)[C@H](C)NC(=O)[C@H](CCCNC(=N)N)NC(=O)[C@H](CCCCNC(=O)COCCOCCNC(=O)COCCOCCNC(=O)CC[C@H](NC(=O)CCCCCCCCCCCCCCCCC(=O)O)C(=O)O)NC(=O)[C@@H](NC(=O)[C@H](CC(=O)O)NC(=O)[C@H](CC(C)C)NC(=O)[C@](C)(Cc1ccccc1)NC(=O)[C@H](CCCCN)NC(=O)[C@H](CO)NC(=O)[C@@H](NC(=O)[C@H](CC(=O)O)NC(=O)[C@H](CO)NC(=O)[C@@H](NC(=O)[C@H](Cc1ccccc1)NC(=O)[C@@H](NC(=O)CNC(=O)[C@H](CCC(N)=O)NC(=O)C(C)(C)NC(=O)[C@@H](N)Cc1c[nH]cn1)[C@@H](C)O)[C@@H](C)O)C(C)C)[C@@H](C)O)C(C)C)C(=O)N[C@@H](CC(C)C)C(=O)NC(C)(C)C(=O)N[C@H](C(=O)N[C@@H](CCC(=O)O)C(=O)O)[C@@H](C)O
[1]
  hGLP-1R EC50 (pM): 22.7 pM
[2]
  hGluc-R EC50 (pM): 203 pM
